Publication PMC12208539, “PPIL2 is a target of the JAK2/STAT5 pathway and promotes myeloproliferation via degradation of p53” (The Journal of Clinical Investigation, 2025)

Biological target: T1, recombinant His-p53 (UniProt P04637 1-393)
T1 construct: p53 from pET15b-p53 (Addgene plasmid 24859); also called pET15b-p53; source: recombinant, pET15b-p53 (Addgene)
Assay: pull-down; GST pulldown: 100 μg recombinant GST-PPIL2 protein with 100 μg recombinant His-p53 and MagneGST glutathione beads overnight at 4°C; washes with TENT buffer (1% Triton X-100, 140 mM NaCl, 2 mM EDTA, 20 mM Tris pH 8.0)
Conditions: both partners purified

T1 sequence (P04637 whole entry): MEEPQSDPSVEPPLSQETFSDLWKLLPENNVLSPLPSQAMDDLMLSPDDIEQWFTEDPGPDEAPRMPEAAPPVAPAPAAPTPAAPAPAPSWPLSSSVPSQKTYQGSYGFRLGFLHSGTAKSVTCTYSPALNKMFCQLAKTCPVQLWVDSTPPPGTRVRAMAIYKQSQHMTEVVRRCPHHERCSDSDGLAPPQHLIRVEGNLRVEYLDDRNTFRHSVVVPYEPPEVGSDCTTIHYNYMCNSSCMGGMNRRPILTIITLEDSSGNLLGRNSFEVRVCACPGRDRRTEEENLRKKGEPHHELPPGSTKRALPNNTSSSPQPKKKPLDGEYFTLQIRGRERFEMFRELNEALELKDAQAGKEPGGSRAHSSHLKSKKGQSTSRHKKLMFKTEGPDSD

B1: recombinant GST-PPIL2-U-box (domain or fragment, UniProt Q13356 1-190, looked up)
chain: MGKRQHQKDKMYITCAEYTHFYGGKKPDLPQTNFRRLPFDHCSLSLQPFVYPVCTPDGIVFDLLNIVPWLKKYGTNPSNGEKLDGRSLIKLNFSKNSEGKYHCPVLFTVFTNNTHIVAVRTTGNVYAYEAVEQLNIKAKNFRDLLTDEPFSRQDIITLQDPTNLDKFNVSNFYHVKNNMKIIDPDEEKAK
notes: peptidylprolyl isomerase-like 2 (PPIL2), U-box domain construct, residues 1-190; the tie of 1-190 to the U-box goes by the order of the list; also called GST-PPIL2 (1-190); U-box domain of PPIL2; source: recombinant, prokaryotic expression vector pGEX6p-3
Does B1 bind?
Result: binds
